Assay results reported in US20090186842, “Methods and compositions for inhibition of viral replication” (published 2009).

T1: TIARa (rTIAR) (Mus musculus, UniProt P70318 P70318:1-392)
T1 sequence: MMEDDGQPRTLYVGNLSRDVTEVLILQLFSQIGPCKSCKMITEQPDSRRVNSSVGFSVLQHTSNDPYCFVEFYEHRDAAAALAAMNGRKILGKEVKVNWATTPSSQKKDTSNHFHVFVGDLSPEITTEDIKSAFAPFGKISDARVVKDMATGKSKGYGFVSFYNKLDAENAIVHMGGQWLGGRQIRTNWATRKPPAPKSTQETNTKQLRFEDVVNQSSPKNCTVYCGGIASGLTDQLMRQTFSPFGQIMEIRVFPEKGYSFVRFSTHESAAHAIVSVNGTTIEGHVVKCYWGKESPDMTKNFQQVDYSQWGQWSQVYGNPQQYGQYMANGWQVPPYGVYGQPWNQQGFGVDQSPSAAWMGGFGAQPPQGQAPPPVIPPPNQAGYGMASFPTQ

T2: GST-TIA-1 RRM3 (UniProt P31483 P31483:214-286)
T2 sequence: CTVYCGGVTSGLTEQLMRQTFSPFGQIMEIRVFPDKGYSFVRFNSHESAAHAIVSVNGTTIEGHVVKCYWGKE

T3: GST-TIA-1 RRM1 (UniProt P31483 P31483:7-83)
T3 sequence: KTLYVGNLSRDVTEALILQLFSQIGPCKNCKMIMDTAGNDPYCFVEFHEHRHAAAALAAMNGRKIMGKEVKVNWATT

T4: GST-TIAR RRM3 (UniProt Q01085 Q01085:205-277)
T4 sequence: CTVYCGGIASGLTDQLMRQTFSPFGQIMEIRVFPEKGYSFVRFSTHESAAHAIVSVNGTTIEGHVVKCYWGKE

T5: GST-TIAR RRM1 (UniProt Q01085 Q01085:9-85)
T5 sequence: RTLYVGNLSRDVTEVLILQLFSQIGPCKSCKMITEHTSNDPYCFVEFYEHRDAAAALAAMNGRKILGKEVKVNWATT

T6: GST-TIA-1 RRM2 (UniProt P31483 P31483:106-184)
T6 sequence: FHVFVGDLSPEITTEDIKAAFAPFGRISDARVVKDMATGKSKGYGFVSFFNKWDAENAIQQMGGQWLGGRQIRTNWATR

T7: GST-TIAR RRM2 (UniProt Q01085 Q01085:97-175)
T7 sequence: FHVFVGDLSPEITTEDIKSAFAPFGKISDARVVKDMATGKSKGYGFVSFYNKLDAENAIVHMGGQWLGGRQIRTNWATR


Key:
TIARa (rTIAR) = target: T1, TIARa (rTIAR); experiment: EMSA; 5-90 nM protein, 0.2 nM RNA, 1 mM MgCl2, 30 mM KCl, RT; conditions: tags: C-terminal His6; label: 32P; stem-loop; AU-rich loops L1, L2, L3
GST-TIA-1 RRM3 = target: T2, GST-TIA-1 RRM3; experiment: EMSA; 500 nM protein; conditions: tags: GST fusion; label: 32P; stem-loop
GST-TIA-1 RRM1 = target: T3, GST-TIA-1 RRM1; experiment: EMSA; 500 nM protein; conditions: tags: GST fusion; label: 32P; stem-loop
GST-TIAR RRM3 = target: T4, GST-TIAR RRM3; experiment: EMSA; 200 nM protein; conditions: tags: GST fusion; label: 32P; stem-loop
GST-TIAR RRM1 = target: T5, GST-TIAR RRM1; experiment: EMSA; 200 nM protein; conditions: tags: GST fusion; label: 32P; stem-loop
GST-TIA-1 RRM2 = target: T6, GST-TIA-1 RRM2; experiment: EMSA; SD 15 nM, n=1.1; conditions: tags: GST fusion; label: 32P; stem-loop
GST-TIAR RRM2 = target: T7, GST-TIAR RRM2; experiment: EMSA; SD 5 nM, n=1.2; conditions: tags: GST fusion; label: 32P; stem-loop

Binder | binding result (TIARa (rTIAR)) | binding result (GST-TIA-1 RRM3) | binding result (GST-TIA-1 RRM1) | binding result (GST-TIAR RRM3) | binding result (GST-TIAR RRM1) | Kd (GST-TIA-1 RRM2) | Kd (GST-TIAR RRM2)
WNV3'(-)SL RNA (ssRNA) RNA: CAGCUCGCACCGUGUUAAUUGUUGUUAAUCCUCACAAACACUACUAAGUUUGUCAGCUCACACAGGCGAACUACU | binds |  |  |  |  |  | 
WNV 3'(-)SL RNA with 5' CCC (ssRNA) RNA: CCCCAGCUCGCACCGUGUUAAUUGUUGUUAAUCCUCACAAACACUACUAAGUUUGUCAGCUCACACAGGCGAACUACU |  | no binding | no binding | no binding | no binding | 112 nM | 15 nM
